The values below come from patent publication KR20220072468A (dated 2022).

For this experiment, the target named is T1, 인간 TIGIT-His (human, UniProt Q495A1 22-141).
T1 construct: extracellular domain; also called TIGIT-6x His; TIGIT 항원
T1 sequence: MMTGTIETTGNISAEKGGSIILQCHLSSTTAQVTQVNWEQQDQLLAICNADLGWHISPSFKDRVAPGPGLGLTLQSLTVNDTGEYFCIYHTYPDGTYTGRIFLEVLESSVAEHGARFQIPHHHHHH
The experiment is described as follows: BLI (Octet QK), antibody on AHC biosensor, human TIGIT-His 15 nM ~ 1.88 nM, 1:1 global fit.

B1: SA2209 (antibody, V domains shown)
VH: QVQLQESGPGLVKPSGTLSLTCAVSGVSIRQGHWWSWVRQPPGKGLEWIGEIYQTGRTNYNPSLKSRVTISVGKSRNHISLKLSSVTAADTAVYYCTTGSGWYPIDYWGQGTLVTVSS
VL: SYELTQDPAVSVALGQTVRITCQGDSLRGFYASWYQQKPGQAPLLVLYGVKDRPSGIPDRFSGSRSGTTASLTITGAQAEDEADYYCNSRDSNGAMMFGGGTKLTVL
notes: also called 항-TIGIT 항체; anti-TIGIT antibody
Turning to B1, binding was characterised by a dissociation constant (Kd) of 3.43 nM, the koff amounted to 0.00136 s⁻¹ and the on-rate constant (kon) came to 397000 M⁻¹ s⁻¹.
